Results published in patent US6548634B1, “Synthetic peptides having FGF receptor affinity” (priority 1998, dated 2003).
Where a SMILES comes first, the peptide text is derived from it. Where no end group is shown, it is not given here.

How the values were obtained:
Swiss 3T3 fibroblasts = assay: BrdU incorporation (mitogenesis) in Swiss 3T3 fibroblasts; type: cell-based; settings: for mitogenic activity in Swiss 3T3: BrdU incorporation
Procedure: 6×Histidine-tagged Clone 19-jun protein (FIG. 1A) was expressed in bacteria and purified by metal affinity chromatography as described in Example 5. Assay of BrdU incorporation, a measure of entry of cells into S-phase and therefore of mitogenesis, was performed according to manufacturers instructions (Cell proliferation ELISA, BrdU, Cat. No. 1-647-229, Boehringer-Mannheim, Indianapolis, Ind.). Briefly, 1×10^4 Swiss 3T3 cells per well were plated on gelatin-coated 96-well microtiter plates in complete media (DMEM, 10% FCS, antibiotics), incubated 24 hours, and the media changed to quiescent media for an addition 24 hours (DMEM containing 0.5 mg/ml bovine serum albumin, 1 μg/ml insulin, 5 μg/ml transferrin, antibiotics). The cells were then treated with bFGF or Clone 19-jun protein at the indicated concentrations in the presence of 15 U/ml heparin. 18 hours later, BrdU was added, the cells incubated an additional 4 hours, and assayed as described. […] Heparin alone had no effect, nor did a control protein expressed and purified in the same manner in which the C19 sequence was deleted.

FGFR1c ECD = target: T1, FGFR1c ECD (Homo sapiens, UniProt P11362); assay: BIAcore real-time kinetic analysis on immobilized FGFR1c ECD; type: binding; settings: absence of heparin
T1 construct: human FGFR Ic (residues 1-377); made in house
T1 sequence (P11362 22-377): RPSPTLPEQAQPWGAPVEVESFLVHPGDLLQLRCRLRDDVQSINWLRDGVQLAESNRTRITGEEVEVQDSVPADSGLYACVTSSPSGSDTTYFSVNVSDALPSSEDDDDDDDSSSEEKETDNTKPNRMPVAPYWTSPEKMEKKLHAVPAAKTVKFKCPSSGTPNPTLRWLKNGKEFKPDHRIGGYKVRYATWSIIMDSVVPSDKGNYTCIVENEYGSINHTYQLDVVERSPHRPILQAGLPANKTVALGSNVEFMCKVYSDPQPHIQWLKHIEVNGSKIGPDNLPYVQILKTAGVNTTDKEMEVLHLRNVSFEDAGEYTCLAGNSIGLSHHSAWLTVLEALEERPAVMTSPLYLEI
Procedure: Apparent affinities for immobilized FGFR1c ECD were determined using BIAcore real-time kinetic analysis in the absence of heparin.
Protein representing the linker segments and c-jun leucine zipper without the C19 sequence (FIG. 2) was expressed, purified, and characterized as for C19jun. C19 peptide with an intrapeptide disulfide bond was synthesized, purified by HPLC, and characterized by mass spectroscopy. C19junΔhep protein was prepared by changing human c-jun residues Arg276, Arg279, Lys285, and Lys288 in the leucine zipper domain to glutamines. Expression, purification, and characterization was as for C19jun. […] The extracellular ligand-binding domain of human FGFR Ic (residues 1-377) and human erythropoietin receptor (residues 1-250) were fused to the Fc region of human IgG1, expressed in baculovirus and purified by protein A affinity chromatography. […] PDGF receptor Fc fusion protein was from R&D Systems.

[1] = Binding to heparin agarose beads

Molecule: CC[C@H](C)[C@@H]1NC(=O)[C@H](CCCCN)NC(=O)[C@H]([C@@H](C)O)NC(=O)[C@H](Cc2c[nH]c3ccccc23)NC(=O)[C@H](C)NC(=O)[C@H](CO)NC(=O)[C@H](CC(=O)O)NC(=O)[C@H]([C@@H](C)O)NC(=O)[C@H](Cc2ccccc2)NC(=O)[C@H](C(C)C)NC(=O)[C@H](CC(C)C)NC(=O)[C@H](C(C)C)NC(=O)[C@@H](NC(=O)[C@H](Cc2ccc(O)cc2)NC(=O)[C@H](CC(=O)O)NC(=O)[C@H](CC(=O)O)NC(=O)CNC(=O)[C@H](CO)NC(=O)[C@H](CCC(=O)O)NC(=O)[C@H](C)N)CSSC[C@@H](C(=O)N[C@@H](CC(=O)O)C(=O)N[C@@H](Cc2c[nH]c3ccccc23)C(=O)N[C@@H](CO)C(=O)N[C@@H](Cc2c[nH]cn2)C(=O)N[C@@H](Cc2ccccc2)C(=O)N[C@@H](CCCNC(=N)N)C(=O)N[C@@H](CC(N)=O)C(=O)O)NC1=O [C19 synthetic peptide] (HELM PEPTIDE1{A.E.S.G.D.D.Y.C.V.L.V.F.T.D.S.A.W.T.K.I.C.D.W.S.H.F.R.N}$PEPTIDE1,PEPTIDE1,8:R3-21:R3$$$V2.0; N-terminus and C-terminus assumed)
- mitogenic activity in Swiss 3T3 (Swiss 3T3 fibroblasts): did not induce mitogenesis even at high concentrations

Molecule: jun leucine zipper only: Protein representing the linker segments and c-jun leucine zipper without the C19 sequence (RIARLEEKVKTLKAQNSELASTANMLREQVAQLKQKVMN; not fully specified) [reference compound]
- Kd (FGFR1c ECD; BIAcore, approximate, read-out: KD, apparent affinity for immobilized FGFR1c ECD): > 10000 nM
- mitogenic activity in Swiss 3T3 (Swiss 3T3 fibroblasts; listed as Deletion of the C19 sequence from the fusion protein): abrogated mitogenic activity
- mitogenic activity in Swiss 3T3 (Swiss 3T3 fibroblasts; listed as control protein): had no effect

B1: F12jun: F12 sequence fused to GGGS linker, c-jun leucine zipper flanked by cysteines, polyhistidine tag; SEQ ID NO:43 (protein)
chain: MATLVCDTVLEGQWRVCNWEGPGGGSGGGSGGGSGGGSGGGSRCGGRIARLEEKVKTLKAQNSELASTANMLREQVAQLKQKVMNGGCGGSGGHHHHHH
- EC50 (Swiss 3T3 fibroblasts; Swiss 3T3, 18 hrs, 15 U/ml heparin, FIG. 6, read-out: EC50 mitogenic activity (BrdU incorporation)): ~1.7 nM

B2: C19junΔhep: C19jun with c-jun residues Arg276, Arg279, Lys285, Lys288 in the leucine zipper changed to glutamines (protein)
chain: MAESGDDYCVLVFTDSAWTKICDWSHFRNGPGGGSGGGSGGGSGGGSGGGSRCGGQIAQLEEKVQTLQAQNSELASTANMLREQVAQLKQKVMNHGGCGGSGGHHHHHH
- binding to immobilized FGFR ECD (FGFR1c ECD; in vitro): same apparent affinity as C19jun
- heparin binding [1]: very low affinity for heparin
- mitogenic activity in Swiss 3T3 (Swiss 3T3 fibroblasts): inactive
